From paper PMC7884072, “Development of antibody-dependent cell cytotoxicity function in HIV-1 antibodies” (eLife, 2021) come the findings set out here.

Settings in all cases: both partners purified
Experiment [1] deals with T1, gp41 ectodomain (HIV strain C.ZA.1197MB) (HIV-1 strain C.ZA.1197MB).
T1 construct: gp41 ectodomain of HIV-1 Env, strain C.ZA.1197MB (clade C); Called monomeric in the legends; also called monomeric C.ZA.1197MB gp41 ectodomain; clade C gp41 ectodomain; source: bought: Immune Technology Corp
T1 chain: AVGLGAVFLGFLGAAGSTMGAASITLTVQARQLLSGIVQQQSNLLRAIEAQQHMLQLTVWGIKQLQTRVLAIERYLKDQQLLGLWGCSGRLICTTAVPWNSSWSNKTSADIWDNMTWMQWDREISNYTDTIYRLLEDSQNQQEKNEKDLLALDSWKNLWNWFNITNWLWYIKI
Briefly: BLI; Octet RED; mAb (8 µg/mL) captured on anti-human IgG Fc biosensors (ligand); monomeric gp41 ectodomain or gp120 as analyte in a series of up to six two-fold dilutions; 30°C; 1X PBS, 0.1% BSA, 0.005% Tween-20, 0.02% sodium azide; association 180 s, dissociation 180 s; double referencing; 1:1 model. On the technique in general: BLI is a label-free optical method that tracks binding on a fibre tip over time.

Experiment [2] deals with T2, gp120 (HIV strain BL035.W6M.C1) (HIV-1 strain BL035.W6M.C1).
T2 construct: gp120, the surface subunit cut from HIV-1 Env gp160, strain BL035.W6M.C1 (clade A); Called monomeric in the legends; also called monomeric BL035.W6M.C1 gp120; monomeric gp120; source: bought: Immune Technology Corp
Put plainly: BLI; 157-lineage naive antibodies as ligand; monomeric BL035 gp120 as analyte at 250 nM; without the double reference approach.

The target of experiment [3] is T2, gp120 (HIV strain BL035.W6M.C1). Put plainly: BLI; mAb lineage members captured on anti-human IgG Fc biosensors (ligand); monomeric gp41 ectodomain or BL035.W6M.C1 gp120 as analyte at 62.5 nM.

B1: 072-0VH0VK (antibody, V domains shown)
VH: QVQLVQSGAEVKKPGSSVKVSCKASGGTFSSYAISWVRQAPGQGLEWMGGIIPILGIANYAQKFQGRVTITADESTSTAYMELSSLRSEDTAVYYCARHYDDSSGFFYGAFDIWGQGTTLTVSS
VL: DIQMTQSPSSLSASVGDRVTITCRASQGISNYLAWYQQKPGKVPKLLIYAASTLQSGVPSRFSGSGSGTDFTLTISSLQPEDVATYYCQKYNSAPWTFGQGTKVEIK
notes: 072-0VH, inferred naive heavy chain variable region (VH 1-69*11, DH 4-17*01, JH 3*02); 072-0VK, inferred naive kappa variable region (VK 1-27*01, JK 1*01); Whole human IgG1, kappa (Igγ1 vector Addgene 80795, Igκ vector Addgene 80796); also called 072 lineage inferred naive mAb; inferred naive precursor of the 072 lineage; source: HEK 293F, co-transfected, purified (protein G)
As usually defined, the Kd is the concentration at which binding is half-saturated. In the case of B1, binding in experiment [1] was put at a Kd of 34.4 nM.

B2: 157-0VHAVK (antibody, V domains shown)
VH: QVQLVQSGAEVKKPGSSVKVSCKASGGTFSSYAISWVRQAPGQGLEWMGGIIPILGIANYAQKFQGRVTITADESTSTAYMELSSLRSEDTAVYYCARGKVSSSDWFQPIYYYYMDVWGGGTTVTVSS
VL: EIVMTQSPATLSVSPGERATLSCRASQSISSYLAWYQQKPGQAPRLLIYDASNRATGIPARFSGSGSGTDFTLTISSLEPEDFAVYYCQQRSNSLPFGQGTRLEIK
notes: Whole human IgG1, kappa; source: HEK 293F, co-transfected, purified (protein G)
B2: the binding result in experiment [2] is recorded as “no binding (tested: 250 nM)”.

B3: 105-1VH1VK (antibody, V domains shown)
VH: EVQLVESGGGLVKPGGSLRLSCAASGFSFTNAYMSWVRQAPGKGLEWVGRIKSKADDGTTDYAAPVKGRFTISRDDSKNTLYLQMNSLKTEDTAVYYCTTGVMIANQDSYYYMDVWGKGTTVAVSS
VL: not shown
notes: as for B2
In the case of B3, in experiment [3], the binding result is “binds”.
